Experimental data published in patent US12338277.

Tests used:
Test in all cases: cell-based or functional assay
[1] = molecular target: HIV-1 Env of pseudovirus 0260.v5.c36 (HIV-1)
[2] = molecular target: HIV-1 Env of pseudovirus 1394C9G1(Rev-) (HIV-1)
[3] = molecular target: HIV-1 Env of pseudovirus 211-9 (HIV-1)
[4] = molecular target: HIV-1 Env of pseudovirus 246F C1G (HIV-1)
[5] = molecular target: HIV-1 Env of pseudovirus 3103.v3.c10 (HIV-1)
[6] = molecular target: HIV-1 Env of pseudovirus 62357_14_03_4589 (HIV-1)
[7] = molecular target: HIV-1 Env of pseudovirus 6244_13_85_4576 (HIV-1)
[8] = molecular target: HIV-1 Env of pseudovirus 6811.v7.c18 (HIV-1)
[9] = molecular target: HIV-1 Env of pseudovirus 89-F1_2_25 (HIV-1)
[10] = molecular target: HIV-1 Env of pseudovirus CAP210.2.00.E8 (HIV-1)
[11] = molecular target: HIV-1 Env of pseudovirus CAP45.2.00.G3 (HIV-1)
[12] = molecular target: HIV-1 Env of pseudovirus CNE20 (HIV-1)
[13] = molecular target: HIV-1 Env of pseudovirus CNE21 (HIV-1)
[14] = molecular target: HIV-1 Env of pseudovirus CNE58 (HIV-1)
[15] = molecular target: HIV-1 Env of pseudovirus Ce1172_H1 (HIV-1)
[16] = molecular target: HIV-1 Env of pseudovirus Ce704809221_1B3 (HIV-1)
[17] = molecular target: HIV-1 Env of pseudovirus Du156.12 (HIV-1)
[18] = molecular target: HIV-1 Env of pseudovirus Q451.e2 (HIV-1)
[19] = molecular target: HIV-1 Env of pseudovirus Q769.d22 (HIV-1)
[20] = molecular target: HIV-1 Env of pseudovirus RHPA4259.7 (HIV-1)
[21] = molecular target: HIV-1 Env of pseudovirus T251-18 (HIV-1)
[22] = molecular target: HIV-1 Env of pseudovirus T255-34 (HIV-1)
[23] = molecular target: HIV-1 Env of pseudovirus T278-50 (HIV-1)
[24] = molecular target: HIV-1 Env of pseudovirus ZM214M.PL15 (HIV-1)
[25] = molecular target: HIV-1 envelope of pseudovirus 1394C9G1(Rev-) (HIV-1)
[26] = molecular target: HIV-1 envelope of pseudovirus 191084 B7-19 (HIV-1)
[27] = molecular target: HIV-1 envelope of pseudovirus 211-9 (HIV-1)
[28] = molecular target: HIV-1 envelope of pseudovirus 231966.c02 (HIV-1)
[29] = molecular target: HIV-1 envelope of pseudovirus 249M B10 (HIV-1)
[30] = molecular target: HIV-1 envelope of pseudovirus 62357_14_03_4589 (HIV-1)
[31] = molecular target: HIV-1 envelope of pseudovirus 6240_08_TA5_4622 (HIV-1)
[32] = molecular target: HIV-1 envelope of pseudovirus 6545.v4.c1 (HIV-1)
[33] = molecular target: HIV-1 envelope of pseudovirus 89-F1_2_25 (HIV-1)
[34] = molecular target: HIV-1 envelope of pseudovirus AC10.0.29 (HIV-1)
[35] = molecular target: HIV-1 envelope of pseudovirus BJOX015000.11.5 (HIV-1)
[36] = molecular target: HIV-1 envelope of pseudovirus BJOX025000.01.1 (HIV-1)
[37] = molecular target: HIV-1 envelope of pseudovirus C1080.c03 (HIV-1)
[38] = molecular target: HIV-1 envelope of pseudovirus C2101.c01 (HIV-1)
[39] = molecular target: HIV-1 envelope of pseudovirus HIV-001428-2.42 (HIV-1)
[40] = molecular target: HIV-1 envelope of pseudovirus HIV-16845-2.22 (HIV-1)
[41] = molecular target: HIV-1 envelope of pseudovirus Q259.d2.17 (HIV-1)
[42] = molecular target: HIV-1 envelope of pseudovirus RHPA4259.7 (HIV-1)
[43] = molecular target: HIV-1 envelope of pseudovirus THRO4156.18 (HIV-1)
[44] = molecular target: HIV-1 envelope of pseudovirus WEAU_d15_410_787 (HIV-1)
[45] = molecular target: HIV-1 envelope of pseudovirus X1632_S2_B10 (HIV-1)
[46] = molecular target: HIV-1 envelope of pseudovirus ZM109F.PB4 (HIV-1)
[47] = molecular target: HIV-1 envelope spike of pseudovirus PVO.4 (HIV-1)
[48] = molecular target: HIV-1 envelope spike of pseudovirus YU-2 (HIV-1) (UniProt P35961)
[49] = molecular target: Murine leukemia virus (MuLV) envelope on pseudovirus (Murine leukemia virus)

10-996 (antibody), sequence (VH): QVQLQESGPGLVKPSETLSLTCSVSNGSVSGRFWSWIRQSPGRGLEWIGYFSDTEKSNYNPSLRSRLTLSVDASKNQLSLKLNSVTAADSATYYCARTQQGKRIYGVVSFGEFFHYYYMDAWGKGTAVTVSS
10-996 (antibody), sequence (VL): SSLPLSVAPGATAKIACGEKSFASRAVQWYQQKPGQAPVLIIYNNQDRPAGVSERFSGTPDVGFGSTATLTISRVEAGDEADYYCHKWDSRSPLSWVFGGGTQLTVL
HIV-1 envelope spike of pseudovirus YU-2 (HIV-1), sequence (P35961 32-843): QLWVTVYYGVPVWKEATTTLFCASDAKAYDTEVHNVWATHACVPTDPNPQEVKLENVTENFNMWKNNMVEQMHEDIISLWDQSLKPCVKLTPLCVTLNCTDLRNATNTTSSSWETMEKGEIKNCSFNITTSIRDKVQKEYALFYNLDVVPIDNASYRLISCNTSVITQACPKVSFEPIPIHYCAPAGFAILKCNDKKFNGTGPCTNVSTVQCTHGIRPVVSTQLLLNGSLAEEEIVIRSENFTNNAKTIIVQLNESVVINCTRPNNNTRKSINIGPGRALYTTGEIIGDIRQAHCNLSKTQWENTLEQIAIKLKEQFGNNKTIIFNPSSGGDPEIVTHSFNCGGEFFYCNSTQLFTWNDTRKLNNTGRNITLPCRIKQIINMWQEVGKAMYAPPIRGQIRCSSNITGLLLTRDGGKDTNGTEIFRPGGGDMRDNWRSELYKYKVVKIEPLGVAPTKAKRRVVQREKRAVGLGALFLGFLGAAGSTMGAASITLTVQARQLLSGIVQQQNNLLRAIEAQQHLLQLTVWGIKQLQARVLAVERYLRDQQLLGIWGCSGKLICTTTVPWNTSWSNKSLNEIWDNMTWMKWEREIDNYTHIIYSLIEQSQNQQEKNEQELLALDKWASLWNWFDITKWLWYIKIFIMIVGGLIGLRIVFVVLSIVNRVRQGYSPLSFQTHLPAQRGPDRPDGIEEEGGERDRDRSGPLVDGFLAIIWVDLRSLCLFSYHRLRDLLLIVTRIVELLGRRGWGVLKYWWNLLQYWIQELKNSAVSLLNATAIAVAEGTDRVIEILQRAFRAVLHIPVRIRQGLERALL

10-996 (antibody)
IC80 (TZM-bl neutralization) [1]: 0.436 µg/mL | IC80 (TZM-bl neutralization) [2]: 0.328 µg/mL | IC80 (TZM-bl neutralization) [3]: 3.85 µg/mL | IC80 (TZM-bl neutralization) [4]: 0.27 µg/mL | IC80 (TZM-bl neutralization) [5]: 0.15 µg/mL | IC80 (TZM-bl neutralization) [6]: > 50 µg/mL | IC80 (TZM-bl neutralization) [7]: 1.3 µg/mL | IC80 (TZM-bl neutralization) [8]: 0.011 µg/mL | IC80 (TZM-bl neutralization) [9]: > 50 µg/mL | IC80 (TZM-bl neutralization) [10]: > 50 µg/mL | IC80 (TZM-bl neutralization) [11]: > 50 µg/mL | IC80 (TZM-bl neutralization) [12]: < 0.001 µg/mL | IC80 (TZM-bl neutralization) [13]: 0.255 µg/mL | IC80 (TZM-bl neutralization) [14]: 2.22 µg/mL | IC80 (TZM-bl neutralization) [15]: 0.173 µg/mL | IC80 (TZM-bl neutralization) [16]: 1.21 µg/mL | IC80 (TZM-bl neutralization) [17]: 0.101 µg/mL | IC80 (TZM-bl neutralization) [18]: > 50 µg/mL | IC80 (TZM-bl neutralization) [19]: > 50 µg/mL | IC80 (TZM-bl neutralization) [20]: 0.163 µg/mL | IC80 (TZM-bl neutralization) [21]: 7.4 µg/mL | IC80 (TZM-bl neutralization) [22]: > 50 µg/mL | IC80 (TZM-bl neutralization) [23]: > 50 µg/mL | IC80 (TZM-bl neutralization) [24]: 3.25 µg/mL | IC50 (TZM-bl neutralization) [25]: 0.086 µg/mL | IC50 (TZM-bl neutralization) [26]: 0.057 µg/mL | IC50 (TZM-bl neutralization) [27]: 0.75 µg/mL | IC50 (TZM-bl neutralization) [28]: > 50 µg/mL | IC50 (TZM-bl neutralization) [29]: > 50 µg/mL | IC50 (TZM-bl neutralization) [30]: 29.3 µg/mL | IC50 (TZM-bl neutralization) [31]: 0.095 µg/mL | IC50 (TZM-bl neutralization) [32]: > 50 µg/mL | IC50 (TZM-bl neutralization) [33]: > 50 µg/mL | IC50 (TZM-bl neutralization) [34]: 0.067 µg/mL | IC50 (TZM-bl neutralization) [35]: > 50 µg/mL | IC50 (TZM-bl neutralization) [36]: > 50 µg/mL | IC50 (TZM-bl neutralization) [37]: > 50 µg/mL | IC50 (TZM-bl neutralization) [38]: > 50 µg/mL | IC50 (TZM-bl neutralization) [39]: 0.04 µg/mL | IC50 (TZM-bl neutralization) [40]: 1.32 µg/mL | IC50 (TZM-bl neutralization) [41]: > 50 µg/mL | IC50 (TZM-bl neutralization) [42]: 0.034 µg/mL | IC50 (TZM-bl neutralization) [43]: > 50 µg/mL | IC50 (TZM-bl neutralization) [44]: 0.147 µg/mL | IC50 (TZM-bl neutralization) [45]: > 50 µg/mL | IC50 (TZM-bl neutralization) [46]: > 50 µg/mL | IC50 (TZM-bl neutralization assay) [47]: 0.211 µg/mL | IC80 (TZM-bl neutralization assay) [47]: 1.72 µg/mL | IC50 (TZM-bl neutralization assay) [48]: 0.256 µg/mL | IC80 (TZM-bl neutralization assay) [48]: 0.891 µg/mL | IC50 (TZM-bl neutralization assay) [49]: > 40 µg/mL | IC80 (TZM-bl neutralization assay) [49]: > 40 µg/mL
